According to US12527821B2, “Compositions and methods related to tumor cell killers and vaccines” (THE BRIGHAM AND WOMEN'S HOSPITAL, INC., priority 2018, dated 2026):

How the values were obtained:
[1] = test system: rGBMnDR4/5-ST-TK-GF1; experiment: Intracranial implantation of sECM-encapsulated rGBMnDR4/5-ST-TK-GF1 in SCID mice, growth and GCV clearance (BLI); assay type: in vivo
Source text: (1) Nodular recurrent GBM resection model: Local retention of therapeutic cells can be achieved by encapsulation of therapeutic cells into biodegradable synthetic extracellular matrix (sECM) before implantation into the resection cavity (16).

[2] = test system: CT2a-GMCSF-mIFNaR1KO engineered with LV-IFNβ/zeo-HSV/TK; experiment: Cell viability after GCV treatment; assay type: cell-based, mouse
Source text: FIG. 2A details the concept to test if CT2a-IFNaR1-KO can be engineered with LV-IFNβ/zeo-HSV/TK.

[3] = test system: rGBMi2-ST-TK; experiment: 18F-FHBG PET imaging of GCV-induced cell clearance; assay type: in vivo, mice; details: after 10 days of daily GCV treatment
Procedure: PET imaging: Mice implanted intracranially with rGBMi2-TK-GF1 were fasted for 4 hours before imaging, anesthetized with 2% isoflurane and 100% oxygen, and injected with 500 μCi of 18F-FHBG via the tail vein. Two hours later, a static dataset was acquired for 60 minutes in 1 bed position (FOV 4.2 cm) using an energy window of 250-700 keV for each mouse. Images were reconstructed using a 2D OSEM algorithm with 2 iterations and 16 subsets. For measuring the mean and maximum standardized uptake values (SUVmean and SUVmax) and metabolic tumor volume (MTV), three-dimensional (3D) regions of interest were drawn over the mouse brain, and uptake values were measured using the explore Vista software (GE Healthcare). The maximum intensity projection images were generated using ImageJ. After the baseline PET scan at day 0, mice were treated daily with GCV (10 mg/kg) and imaged again by PET at day 10 after GCV treatment.

[4] = test system: rGBMiDR4/5-ST-TK; experiment: GCV titration of DR4/5 knockout line with HSV-TK in vitro; assay type: cell-based, human; details: as opposed to non-TK control lines
Procedure: (§1) Thus, should tumors acquire a DRL-resistant phenotype during adjuvant clinical therapy and tumor recurrence, TK-induced bystander effect of therapeutic self-cells might still provide robust treatment efficacy.
(§2) Lentiviral transductions and engineering of stable cell lines: Lentiviral packaging was performed by transfection of 293T cells as previously described (73), and cells were transduced with lentiviral vectors at M.O.I of 2 in medium containing protamine sulfate (2 μg/ml). For bioluminescence imaging, cancer cells were transduced with LV-Pico2-Fluc-mCherry, LV-Pico2-Rluc-mCherry, or LV-Pico2-Fluc-GFP and selected by FACS using a BD FACSAriaTM Fusion cell sorter or puromycin selection (1 μg/ml) in culture. GFP or mCherry expression was visualized by fluorescence microscopy. […] Cell viability was measured using an ATP-dependent luminescent reagent (CellTiter Glo, Promega) for non-Fluc expressing cells, or with luciferin or coelenterazine for Fluc- and Rluc-expressing cells, respectively. Caspase activity was determined using a DEVD-aminoluciferin assay (Caspase-3/7 Glo, Promega) according to the manufacturer's instructions. Experiments were performed in triplicate. […]

[5] = test system: rGBMnDR4/5-ST-TK; experiment: as above; assay type: cell-based, human; details: as opposed to non-TK control lines
Procedure: as §1, §2

[6] = test system: rGBMi2-TK cells; experiment: GCV-induced clearance of HSV-TK engineered rGBM in vitro (cell viability); assay type: cell-based, human; details: in comparison to controls
Procedure: Cell viability and caspase assays: Tumor cells were plated in 96-well plates and treated with different doses of S-TRAIL for 24 hours and different doses of GCV for up to 96 hours. Cell viability was measured using an ATP-dependent luminescent reagent (CellTiter Glo, Promega) for non-Fluc expressing cells, or with luciferin or coelenterazine for Fluc- and Rluc-expressing cells, respectively. Caspase activity was determined using a DEVD-aminoluciferin assay (Caspase-3/7 Glo, Promega) according to the manufacturer's instructions. Experiments were performed in triplicate.

[7] = test system: 293 Ts engineered with LV-IFNβ/zeo-HSV/TK; experiment: Cell viability after GCV treatment; assay type: cell-based
[8] = test system: GBM8 (sGBMi); experiment: TRAIL sensitivity screen/titration (cell viability); assay type: cell-based, human; details: invasive GBM cell line
Source text: (§3) To investigate the therapeutic efficacy of receptor-targeted molecules, the Inventors tested a panel of different cancer cell lines for their susceptibility to treatment with cell surface receptor ligands/antagonists targeting CD36 (thrombospondin-1, TSP), epidermal growth factor receptor (EGFR) (EGFR-blocking nanobody, Nb), heterodimeric interleukin 20 receptor (IL20R) comprised of subunits α and β (interleukin 24, IL24), and DRs (TRAIL) (FIG. 6 C). A nodular (n) and an invasive (i) GBM cell line (Gli36Δ-EGFR and GBM8, respectively) were screened and found to be DR ligand (DRL)-sensitive(s) (herein referred to as sGBMn and sGBMi). The following non-GBM cancer lines were also identified as DRL-sensitive: PC3 (sPCm), Jurkat (sTCL), HCT116 (sCC), and MDA231-BrM2a (sBCm). […] In addition to the above DRL-sensitive(s) cell lines, three DRL-resistant (r) GBM cell lines were identified (GBM23, GBM64, GBM46, herein referred to as rGBMi1, rGBMi2, rGBMi3) (FIG. 6D). Based on these findings, DR4 and DR5 were chosen as the most suitable candidates to further investigate the therapeutic potential of receptor self-targeted therapies.
(§4) Lentiviral transductions and engineering of stable cell lines: Lentiviral packaging was performed by transfection of 293T cells as previously described (73), and cells were transduced with lentiviral vectors at M.O.I of 2 in medium containing protamine sulfate (2 μg/ml). For bioluminescence imaging, cancer cells were transduced with LV-Pico2-Fluc-mCherry, LV-Pico2-Rluc-mCherry, or LV-Pico2-Fluc-GFP and selected by FACS using a BD FACSAriaTM Fusion cell sorter or puromycin selection (1 μg/ml) in culture. GFP or mCherry expression was visualized by fluorescence microscopy. […] Cell viability was measured using an ATP-dependent luminescent reagent (CellTiter Glo, Promega) for non-Fluc expressing cells, or with luciferin or coelenterazine for Fluc- and Rluc-expressing cells, respectively. Caspase activity was determined using a DEVD-aminoluciferin assay (Caspase-3/7 Glo, Promega) according to the manufacturer's instructions. Experiments were performed in triplicate. For treatments with conditioned medium, plasmid vectors coding for secretable expression of CD36-targeting ligand 3TSR (a functional thrombospondin-1, TSP-1 analog) (09), EGFR-blocking ligand NB (12), IL-20Rα/β-targeting ligand IL-24 (69), and DR ligand S-TRAIL (69) were transfected into 293T cells. Medium was changed the next day, collected 40 hours after transfection, and frozen at −80° C. until further use.

[9] = test system: GBM23 (rGBMi1); experiment: as above; assay type: cell-based, human
Source text: as §3, §4

[10] = test system: Jurkat (sTCL); experiment: as above; assay type: cell-based, human
Source text: as §3, §4

[11] = test system: HCT116 (sCC); experiment: as above; assay type: cell-based, human
Source text: as §3, §4

[12] = test system: MDA231-BrM2a (sBCm); experiment: as above; assay type: cell-based, human
Source text: as §3, §4

[13] = test system: PC3 (sPCm); experiment: as above; assay type: cell-based, human
Source text: as §3, §4

[14] = test system: GBM64 (rGBMi2); experiment: as above; assay type: cell-based, human
Source text: as §3, §4

[15] = test system: GBM46 (rGBMi3); experiment: as above; assay type: cell-based, human
Source text: as §3, §4

[16] = test system: Gli36Δ-EGFR (sGBMn); experiment: as above; assay type: cell-based, human; details: nodular GBM cell line
Source text: as §3, §4

[17] = test system: panel of different cancer cell lines; experiment: Screen of receptor-targeted ligands/antagonists on a panel of cancer cell lines; assay type: cell-based, human; details: 72 hours after treatment; versus TSP, Nb, IL24
Source text: To investigate the therapeutic efficacy of receptor-targeted molecules, the Inventors tested a panel of different cancer cell lines for their susceptibility to treatment with cell surface receptor ligands/antagonists targeting CD36 (thrombospondin-1, TSP), epidermal growth factor receptor (EGFR) (EGFR-blocking nanobody, Nb), heterodimeric interleukin 20 receptor (IL20R) comprised of subunits α and β (interleukin 24, IL24), and DRs (TRAIL) (FIG. 6 C). A nodular (n) and an invasive (i) GBM cell line (Gli36Δ-EGFR and GBM8, respectively) were screened and found to be DR ligand (DRL)-sensitive(s) (herein referred to as sGBMn and sGBMi). […]
as §2, with “For bioluminescence imaging, cancer cells were transduced with LV-Pico2-Fluc-mCherry, LV-Pico2-Rluc-mCherry, or LV-Pico2-Fluc-GFP and selected by FACS using a BD FACSAriaTM Fusion cell sorter or puromycin selection (1 μg/ml) in culture.” left out, “instructions.” for “instructions. Experiments were performed in triplicate.”

Molecule	time to drop of BLI signal back to baseline ([1]; after initiation of GCV therapy) [days]	GCV-induced (HSV-TK mediated) cell clearance ([1]; mouse, in vivo)	cell-viability after GCV-treatment [2]	tumor-specific PET signal intracranially [3]	cell elimination by GCV [4]	cell elimination by GCV [5]	elimination of rGBMi2-TK cells [6]	cell-viability after GCV-treatment [7]	susceptibility to DR ligand (DRL) [8]	susceptibility to DR ligand (DRL) [9]	susceptibility to DR ligand (DRL) [10]	susceptibility to DR ligand (DRL) [11]	susceptibility to DR ligand (DRL) [12]	susceptibility to DR ligand (DRL) [13]	susceptibility to DR ligand (DRL) [14]	susceptibility to DR ligand (DRL) [15]	susceptibility to DR ligand (DRL) [16]	efficacy in comparison to the other tested ligands [17]
Nc1nc2c(ncn2COC(CO)CO)c(=O)[nH]1 [GCV, Ganciclovir]	≤ 9	successful cell clearance	dose-dependent reduction of cell-viability	no longer visible	dose-dependent cell elimination	dose-dependent cell elimination	dose- and time-dependent elimination	dose-dependent reduction of cell-viability	–	–	–	–	–	–	–	–	–	–
TNF-related apoptosis-inducing ligand (protein, listed as Homo sapiens, death receptor (DR4/5) ligand used to treat cancer cell lines) MAMMEVQGGPSLGQTCVLIVIFTVLLQSLCVAVTYVYFTNELKQMQDKYSKSGIACFLKEDDSYWDPNDEESMNSPCWQVKWQLRQLVRKMILRTSEETISTVQEKQQNISPLVRERGPQRVAAHITGTRGRSNTLSSPNSKNEKALGRKINSWESSRSGHSFLSNLHLRNGELVIHEKGFYYIYSQTYFRFQEEIKENTKNDKQMVQYIYKYTSYPDPILLMKSARNSCWSKDAEYGLYSIYQGGIFELKENDRIFVSVTNEHLIDMDHEASFFGAFLVG	–	–	–	–	–	–	–	–	sensitive	DRL-resistant	DRL-sensitive	DRL-sensitive	DRL-sensitive	DRL-sensitive	DRL-resistant	DRL-resistant	sensitive	most effective agent
